Results as given in the nanobody polyreactivity screen of Harvey et al. (2022).

Experiment: yeast display, Sf9 membrane polyspecificity reagent, FACS + sequencing; frameworks hold sequencing errors
Summary of the method: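 Polyreactivity labels are assigned by the sorting gate from which each nanobody was recovered. The gates were low and high (top ~1%), set on anti-HA fluorescence for expression and streptavidin fluorescence for reagent binding. Before sorting, galactose-induced (36–48 hours) yeast display cells were stained for 1 hour at 4 °C with 10% biotinylated, detergent-solubilized Sf9 membrane reagent.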

Sequence | polyreactivity (PSR sort gate)
QVQLVESGGGLVQAGGSLRLSCAASGRTVSFYDMGWYRQAPGKERELVAAINSGSSTYYADSVKGRCTISRDNANTTVYLQMNSLKPEDTAVYYCADEPYFWWQNEYWGQGTQVTVSS | high polyreactivity
QVQLVESGGGLVQAGGSLRLSCAASGFTFYYYAMGWYRQAPGKERELVAGISKSGGITYYADSVKGRFTISLDNAKNTVYLQMNSLKPEDTAVYYCAAAEWYQFFIYRYTYEYWGQGTQVTVSS | low polyreactivity
QVQLVESVGGLVPAGGSLRLSCAASGFTYPAYTMGWYRQAPGKERELVAAITSSGGNTYYADSVKGRFTISRDNAKNTVYLQMNSLKPEDTAVYYCYADASSSPYTDRQYIGADDSWGQGTQVTVSS | low polyreactivity
QVHLVESGGGLVQAGGSHRLSCAASGFIFKVNAMGWYRQAPGKERELVAAITGSGGSTYYADSVKGRFTISRDNAKNTVFLQMISLKPEDTAVYYCISLYDGYSTRLGFWGHGTQVTVSS | high polyreactivity
QVQLVESGGGLVQAGGSLRLSCAASGSTFPFNAMGWYRQAPGKERELVAGIRSRGGSTYYADSVKGRFTISRDNAKNTVYLQMNSLKPEDTAVYYCAKVYKDRDDLFYYWGQGTQVTVSS | low polyreactivity
QVQLVESGGGLVQAGGSLRLSCAASGNTFSWYAMGWYRQAPGKERELVAVITSGGSTNYADSVKGRFTISRDNAKNTVYLQMNSLKPEDTAVYYCNKGLSRSYWWVDYWGQGTQVTVSS | low polyreactivity
QVQLVESGGGLVQAGGSLRLSCAASGSIFYGYDMGWYRQAPGKERELVAAITIGGGTTYYADSVKGRFTISRDNAKNTVYLQMNSLKPEDTAVYYCAAEFYYTIYSNKVGYDYWGQGTQVSVSS | high polyreactivity
QVQLVESGGGLVQAGGRLRLSCAASGLIFYVYAMGWYRQEPGKERELVASITWSGGRTYYADSVKGRFTISRDNEKNTVYLQMNSLKPEDTAVYYCATDLIQGAAPFRYDYWGQGTQVTVSS | low polyreactivity
QVQLVESGGGLVQAGGSLRLSCAASGRILDGYAMGWYRQATGKERELVAAISRTGGGTYYADSVKGRFTISRDNSKNTVFLQMISLKPEDTAVYYCAKRRYYITLQADFDYWGQGTQVTVSS | low polyreactivity
QVQLGESGGGLVQAGGSLRLSCAASGRTFYTNARGWYRQAAGKARELAADISRGGTTYYADSVKGRFTISRDNAKNTVYLQMNSLKPQDTAVYYSAAEGHELTEGDSWGQGTQVTVSS | low polyreactivity
QVQLVESGGGLVQAGGSLRLSCAASGSTFPDNAMGWYRQAPGKERELVATITSGASTYYADSVKGRFTISRDNAKNTVYLQMNSLKPEDTAVYYCAVDVYFYYRHYGYWGQGTQVTVSS | low polyreactivity
QVQLVESGGGLVQAGGSLRLSCAASGRTFGYYAMGWYRQAPGKERELVAAIRSTGSTNYADSVKGRFTISRDNAKNTVYLQMNSLKPDDTAVYYCNADPWWRFDYWGQGTQVTVSS | low polyreactivity
QDQLVESGGGLVQAGGSLRLSCAASGFTFYPYAMGWYRQAAGKERELVASITNGGSTNYADSVKGRFTISRDNAKNTVYLQMNSLKPEDTAVYYCNAAYGFYASRYWYASYDYWGQGTQVTVSS | low polyreactivity
QVQLVESGGGLVQAGGSLRLSCAASGSIFGLYAMGWYRQAPGKERELVAAINQSGGSTSYADSVKGRFTISRDNAKNTVYLQMNSLKPEDTAVYYCNRVRLNTEGFDYWGQGTQVTVSS | low polyreactivity
QVQLLETGAGLVHAGGSLRLSCAAYGFIFRDYAMGCYRQAPGKERELVAAIYYSGGSTYYADSVKGRFTISRDNAKNTVYLQLNSLKPEDTAVYYCNAVNPYYAPTDRRVGYDYWGQGTQVTVSS | high polyreactivity
QVQLVESGGGLVQAGGSLRLSCAASGRTFDGYTLGGYRQAPGKERELVAAISTGGGSTYYADSVKGRFTISRDNAKNTVYVQLNSLKPEDTAVYDCAARGGSYSFRRYNYWGQGTQVTVSS | high polyreactivity

Sequence | polyreactivity (PSR sort gate)
QVQLVESGGGLVQAGGSLRLSCAASGFIFSVYAMGWYRQAPGKERELVAAITESGGSTYYADSVKGRFTISRDNAKNSVYLQMNSLKPEDTAVYYCAAAIRPYEYEYWGQGTQVTVSS | low polyreactivity
QVQLVESGGGLVQAGGSLRLSCAASGSTIPSYAMGWYRPAPGKETELVASITYSDGTTRYADSVKGRFTISRDNAKNTVYLQMNSLIPEDTAVYYCNAVYYREGMDYWGQGTQVTVSS | low polyreactivity
QVQLVESGGGLVQAGGSLRLSCAASGRIFQKYAMGWSRQAPGKERELVAAISYGGGRTYYADSVKGRFTISRDNAKNTVYLQMNSLKPEDTAVYYCATDYKYAAPTVIESDYWGQGTQVTVSS | high polyreactivity
QVQLVESGGGLVQAGGSLRLSCAASGLIFPIYAMGWYRQAPGKERELVAVITWSGGSTYYADSVKGRFTISRDNAKNTVYLQMNSLKPEDTAVYYCAVEWAYPYWYTYYLEDYWGQGTQVTVSS | low polyreactivity
QVQLVESGGGLVQAGGSLRLSCAASGSIRSYAMGWYRQAPGKERELVAAITRSGGSTYYADSVKGRFTISRDNAKNTVYLQMNSLKPEDTADYYCGARSTYSYPLFGSWGQGTQVTVSS | high polyreactivity
QVQLVESGGGLVQAGGSLRLSCAASGRIFTGYAMGWYRQAPGKERELVAAISRGGSTNYADSVKGRFTISRDNAMNTVYLQMNSLKAEDTSVYYCACGVHWDRGDYWGQGAQVTVSS | low polyreactivity
QDHLVESGGGLVQAGGSLRLSCAASGRIFFGYAMGWYRQATGKERELVATISYNDTSTYYADSVKGRFTISRDNAKNTVYLQMNCLKPEDTAVNYCSKSLGAPASDVYWGQGTQVTVSS | low polyreactivity
QVQLVESGGGIVQAGGSLRLSCAASGIIFRAYAMGWSRQAPGKDRELVAAISWSGGSTYYADSVKGRFTISRDNAKNTVYLQMNSLKPEDTAVYYCAARRWKGYYYWGQGTQVNVSS | high polyreactivity
QVQLVESGGGLVQAGGSLRLSCAASGRTFKYYAMGWYRQAPGKERELVAAISWNGGSTYYADSVKGRFTISRDNAKNTVYLQMNSLKPEDTAVYYCAARYYAAGIGSRYDYWGQGTQVTVSS | high polyreactivity
QVQLVESGGGLVQAGGSLRLSCAASGFTFSINTMGWYRQAPGKEREFVAGISRSGGSTYYADSVKGRFTISRDNAKNTVYLQMNSLKPEDTAVYYCLKYYQGYDYWGQGTQVTVSS | high polyreactivity
QVQLVESGGGLFQAGGSLPVSCAASGFIFDDYAMGWYRQAPGKERELVAAISSGGSTNYADSVKGRFTISRDNAKNTVYLQLNSLKPEDSAVYYCADRAGYQFSYNYWGQGTQVTVSS | high polyreactivity
QVQLVESGGGLVQAGGSLRLSCAASGSTFNRYAMGWYRPAPGKEWELVAAISGSNGGTDYADSVKGRFTISRDNAKNTVYLQMNSLKPEDTAVYYCAKVRAYTRLGLTVSMDYWGQGTQVTVSS | high polyreactivity
QVQLVESGGGLVQAGGSLRISCAASGSIFVLYAMGWYRQAPGKERELVATITWSGDSTYYADSVKGRFTISRDNAKNTVYLQMNSLKPEDTAVYYCNKRIWDQYDWGQGTQVTVSS | low polyreactivity
QVQLEESGAGVVQAGGSLRLSCAASGRTFQYNAMGWYRPAPGTERELVAAISSSGGSTYYADSVKGRFTISRDNAKNTVYFQMNSLNPEDTAVYYCNAYSQSWNFYGVGDYWGQGTQVTVSS | low polyreactivity
QVQLVESGGGLVQEGGILPLSCAASGRIFGTYAMGWYRQAPGKERELVAAISSSGTSTYYADSVKGRFTISRDNAKNTVYLPMNSLKPEDTAVYYCAARYPRTAYDYWGQCTQVTVSS | low polyreactivity
QVQLVESGGGLVHAGGSLRLSCAASGSIYYAYAMGGYRQAPGKERELVATITWNGDSTYYADSVKGRFTISLDNAKNTVYLQMNSLKPEDTAVYYCAARYRWPIPGTQYEYWGQGTQVTVSS | low polyreactivity
